The values below come from patent US20220332804A1 (CSL INNOVATION, published 2022).

Holding throughout (test): SPR, mAb captured, C2 mutant analyte;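 also: Anti-C2 mAbs captured on goat anti-human IgG Biacore CM5 chips, alanine or serine C2 surface mutants flowed over at 37 °C, double-referenced sensorgrams fitted to a 1:1 binding model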
For orientation: SPR reads the build-up and loss of mass on a sensor chip optically.

The target of test [1] is T1, human C2 S456A (human, UniProt P06681 21-752).
T1 sequence: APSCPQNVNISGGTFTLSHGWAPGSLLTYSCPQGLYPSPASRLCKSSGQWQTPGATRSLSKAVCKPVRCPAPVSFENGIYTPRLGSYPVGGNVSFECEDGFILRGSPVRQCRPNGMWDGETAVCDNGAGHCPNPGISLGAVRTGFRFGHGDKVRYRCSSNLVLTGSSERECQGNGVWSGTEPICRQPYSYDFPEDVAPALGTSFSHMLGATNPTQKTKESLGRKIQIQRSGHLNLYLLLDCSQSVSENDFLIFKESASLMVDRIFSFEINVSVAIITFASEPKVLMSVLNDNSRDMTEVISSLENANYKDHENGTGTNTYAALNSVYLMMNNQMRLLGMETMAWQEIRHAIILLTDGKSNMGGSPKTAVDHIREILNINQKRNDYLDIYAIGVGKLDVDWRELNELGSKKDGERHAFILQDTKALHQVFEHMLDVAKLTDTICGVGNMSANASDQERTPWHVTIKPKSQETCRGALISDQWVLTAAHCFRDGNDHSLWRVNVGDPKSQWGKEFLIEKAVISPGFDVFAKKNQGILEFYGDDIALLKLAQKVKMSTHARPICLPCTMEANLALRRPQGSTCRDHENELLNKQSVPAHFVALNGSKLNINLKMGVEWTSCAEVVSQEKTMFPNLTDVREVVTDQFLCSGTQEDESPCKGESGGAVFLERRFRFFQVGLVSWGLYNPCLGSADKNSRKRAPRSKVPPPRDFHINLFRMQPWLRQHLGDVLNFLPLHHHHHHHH

The target in test [2] is T2, human C2 T442A (human, UniProt P06681 21-752).
T2 sequence: T1 sequence with T422A, A436S

In test [3] the target is T3, human C2 H446A (human, UniProt P06681 21-752).
T3 sequence: T1 sequence with H426A, A436S

Test [4] concerns the target T4, human C2 N471A (human, UniProt P06681 21-752).
T4 sequence: T1 sequence with A436S, N451A

Residue numbers refer to the chain shown, from its start.

B1: RF16-214 (antibody, V domains shown)
VH: EVQLLESGGGLVQPGGSLRLSCAASGFTFSWYQMMWVRQAPGKGLEWVSRIYPSGGGTAYADSVKGRFTISRDNSKNTLYLQMNSLRAEDTAVYYCARDAGYGDNWGQGTLVTVSS
VL: QSALTQPPSVSVSPGQTASITCSGDKLGEKYASWYQQKAGQSPVMVIYQDRKRPSGIPERFSGSNSGNTATLTISGTQAMDEADYYCQAWDTRAVVFGGGTKLTVLG
Take B1: the Kd (as a rule, the free concentration of one partner at which half of the binding sites on the other are occupied at equilibrium, for simple one-to-one binding) in test [1] worked out at 157 nM; in test [2], 70.7 nM; in test [3], 153 nM; in test [4] it was 32.8 nM.
